{"source": "paper PMC7876548", "target": "unmethylated D2 peptide (amino acids 208-243 of the third intracellular loop of the human D2 receptor) (human) (UniProt P14416)", "sequence (P14416 208-243)": "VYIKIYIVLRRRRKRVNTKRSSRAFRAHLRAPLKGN", "experiment": "fluorescence polarisation; anisotropy; fluorescently labelled D2 peptide at 0.025 µM final, Par-4 or CaM added from 10x stocks of 0-20 µM; 200 mM NaCl, 200 µM CaCl2, 50 mM Tris pH 7.5; room temperature, ten minutes; average of four trials", "data": [{"substance": "human Par-4 (prostate apoptosis response 4 protein) (from UniProt Q96IZ0 1-340) (natural protein)", "values": [{"measurement": "Kd", "value": 0.0216, "unit": "µM"}]}]}
